Experimental data taken from patent publication US20220133889A1 (published 2022).

Experiments:
[1] = molecular target: T1, cynomolgus TIM-3 expressed on transfected cells (cynomolgus, UniProt A0A2K5U3G7 22-294); assay: cell binding (FACS); cyno TIM-3 cells
T1 chain: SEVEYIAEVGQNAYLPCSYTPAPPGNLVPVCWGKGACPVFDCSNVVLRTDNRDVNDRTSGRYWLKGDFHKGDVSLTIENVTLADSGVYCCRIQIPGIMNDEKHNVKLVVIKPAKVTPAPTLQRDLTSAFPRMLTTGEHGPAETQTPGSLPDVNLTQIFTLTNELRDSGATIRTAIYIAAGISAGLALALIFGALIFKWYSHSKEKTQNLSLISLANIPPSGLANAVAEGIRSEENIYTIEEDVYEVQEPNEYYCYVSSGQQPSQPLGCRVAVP

[2] = molecular target: TIM-3 (assay antigen; species and construct not stated) (UniProt Q8TDQ0 22-202); assay: SPR (BIAcore)
[3] = molecular target: human TIM-3 expressed on cells (UniProt Q8TDQ0 22-301); assay: cell binding (FACS); TIM-3-transfected 300.19 cells

B1: ABTIM3 (antibody, V domains shown)
VH: QVQLQQPGAELVKPGASVKMSCKASGYTFTSYNMHWIKQTPGQGLEWIGDIYPGNGDTSYNQKFKGKATLTADKSSSTVYMQLSSLTSEDSAVYYCARVGGAFPMDYWGQGTSVTVSS
VL: DIVLTQSPASLAVSLGQRATISCRASESVEYYGTSLMQWYQQKPGQPPKLLIYAASNVESGVPARFSGSGSGTDFSLNIHPVEEDDIAIYFCQQSRKDPSTFGGGTKLEIK
Work on B1 yielded a Kd [1] of 680 pM, a Kd [2] of 42 pM and a Kd [3] of 160 pM.
